Test results from PMC5466061.

B1: (GGGTTA)8 (structured_DNA)
DNA: TCGAGGGTTAGGGTTAGGGTTAGGGTTAGGGTTAGGGTTAGGGTTAGGGTTAC
B2: hTert 1-12 (structured_DNA)
DNA: AGGGGAGGGGCTGGGAGGGCCCGGAGGGGGCTGGGCCGGGGACCCGGGAGGGGTCGGGACGGGGCGGGGT

Target: nucleolin (NCL) (Homo sapiens, UniProt P19338 1-710)
Assay: EMSA

nucleolin (NCL), sequence (P19338 whole entry): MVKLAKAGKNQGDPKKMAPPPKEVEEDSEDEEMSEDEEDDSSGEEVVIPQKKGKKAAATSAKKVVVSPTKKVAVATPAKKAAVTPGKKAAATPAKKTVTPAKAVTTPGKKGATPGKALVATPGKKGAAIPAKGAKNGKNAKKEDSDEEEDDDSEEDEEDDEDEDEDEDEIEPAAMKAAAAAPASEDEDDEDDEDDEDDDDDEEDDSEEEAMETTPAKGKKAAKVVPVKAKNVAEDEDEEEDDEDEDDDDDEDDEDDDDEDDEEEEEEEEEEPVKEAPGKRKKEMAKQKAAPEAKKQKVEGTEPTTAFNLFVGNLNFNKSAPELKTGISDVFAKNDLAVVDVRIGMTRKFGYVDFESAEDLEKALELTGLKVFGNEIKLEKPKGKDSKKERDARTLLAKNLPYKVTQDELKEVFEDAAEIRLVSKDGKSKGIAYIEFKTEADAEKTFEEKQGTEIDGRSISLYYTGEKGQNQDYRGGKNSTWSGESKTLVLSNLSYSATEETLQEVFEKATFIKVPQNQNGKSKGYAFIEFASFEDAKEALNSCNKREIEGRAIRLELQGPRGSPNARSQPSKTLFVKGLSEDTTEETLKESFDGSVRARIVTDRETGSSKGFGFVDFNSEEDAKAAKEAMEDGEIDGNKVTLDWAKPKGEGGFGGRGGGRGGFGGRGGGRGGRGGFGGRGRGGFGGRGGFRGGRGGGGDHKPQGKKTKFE

Binding result, binds:
GGGTTTGGGTTTTTTTTTGGGTTTGGG (structured_DNA) [n5M3], B1, AGGGGCGGGCGCGGGAGGAAGGGGGCGGGAGCGGGGCTG (structured_DNA) [bcl-2], GGGTTAGGGTTAGGGTTAGGGTTAGGGTTAGGGTTA (structured_DNA) [(GGGTTA)6], AGGGGGCTGGGCCGGGGACCCGGGAGGGGTCGGGACGGGGCGGGGT (structured_DNA) [hTert 5-12], GGGTTTGGGTTTGGGTTTTTTTTTGGG (structured_DNA) [n5M4], GGGTTTGGGTTTGGGTTTGGGTTTGGGTTTGGGTTTGGGTTTGGGTTT (structured_DNA) [(GGGTTT)8], GGGTTTGGGTTTGGGTTTGGGTTTGGG (structured_DNA) [(GGGTTT)5], GGGTGGGTGGGTGGG (structured_DNA) [111], TGGGGAGGGTGGGGAGGGTGGGGAAGG (structured_DNA) [c-myc], GGGTTTGGGTTTGGGTTTGGGTTTGGGTTTGGGTTT (structured_DNA) [(GGGTTT)6], B2, GGGTTTTTTTTTGGGTTTGGGTTTGGG (structured_DNA) [n5M2], GGGTTAGGGTTAGGGTTAGGG (structured_DNA) [(GGGTTA)4], GGGTTTGGGTTTGGGTTTGGG (structured_DNA) [(GGGTTT)4 = 333]
